Assay results reported in IntAct's records for PubMed 26258637.

B1: Rab-3A-interacting protein (Homo sapiens), Q96QF0-2 (parent)
chain: MANDPLEGFHEVNLASPTSPDLLGVYESGTQEQTTSPSVIYRPHPSALSSVPIQANALDVSELPTQPVYSSPRRLNCAEISSISFHVTDPAPCSTSGVTAGLTKLTTRKDNYNAEREFLQGATITEACDGSDDIFGLSTDSLSRLRSPSVLEVREKGYERLKEELAKAQRELKLKDEECERLSKVRDQLGQELEELTASLFEEAHKMVREANIKQATAEKQLKEAQGKIDVLQAEVAALKTLVLSSSPTSPTQEPLPGGKTPFKKGHTRNKSTSSAMSGSHQDLSVIQPIVKDCKEADLSLYNEFRLWKDEPTMDRTCPFLDKIYQEDIFPCLTFSKSELASAVLEAVENNTLSIEPVGLQPIRFVKASAVECGGPKKCALTGQSKSCKHRIKLGDSSNYYYISPFCRYRITSVCNFFTYIRYIQQGLVKQQDVDQMFWEVMQLRKEMSLAKLGYFKEEL
B2: Ras-related protein Rab-11A (Homo sapiens), P62491 (parent)
chain: MGTRDDEYDYLFKVVLIGDSGVGKSNLLSRFTRNEFNLESKSTIGVEFATRSIQVDGKTIKAQIWDTAGQERYRAITSAYYRGAVGALLVYDIAKHLTYENVERWLKELRDHADSNIVIMLVGNKSDLRHLRAVPTDEARAFAEKNGLSFIETSALDSTNVEAAFQTILTEIYRIVSQKQMSDRRENDMSPSNNVVPIHVPPTTENKPKVQCCQNI
partner: B1 chain

Variants of: B1
Details: with rb11a_human RAB11A

Variant	effect of a mutation on the interaction
MANDPLEGFHEVNLASPTSPDLLGVYESGTQEQTTSPSVIYRPHPSALSSVPIQANALDVSELPTQPVYSSPRRLNCAEISSISFHVTDPAPCSTSGVTAGLTKLTTRKDNYNAEREFLQGATITEACDGSDDIFGLSTDSLSRLRSPSVLEVREKGYERLKEELAKAQRELKLKDEECERLSKVRDQLGQELEELTASLFEEAHKMVREANIKQATAEKQLKEAQGKIDVLQAEVAALKTLVLSSSPTSPTQEPLPGGKTPFKKGHTRNKSTSSAMSGSHQDLSVIQPIVKDCKEADLSLYNEFRLWKDEPTMDRTCPFLDKIYQEDIFPCLTFSKSELASAVLEAVENNTLSIEPVGLQPIRFVKASAVECGGPKKCALTGQSKSCKHRIKLGDSSNYYYISPFCRYRITSVCNFFAYIRAIQQGAVKQQDVDQMFWEVMQLRKEMSLAKLGYFKEEL [T419A;Y423A;L428A]	decreasing interaction strength

Variants of: B2
Details: with RAB3IP

Variant	effect of a mutation on the interaction
MGTRDDEYDYLFKVVLIGDSGVGKNNLLSRFTRNEFNLESKSTIGVEFATRSIQVDGKTIKAQIWDTAGQERYRAITSAYYRGAVGALLVYDIAKHLTYENVERWLKELRDHADSNIVIMLVGNKSDLRHLRAVPTDEARAFAEKNGLSFIETSALDSTNVEAAFQTILTEIYRIVSQKQMSDRRENDMSPSNNVVPIHVPPTTENKPKVQCCQNI [S25N]	disrupting interaction strength
